In patent US20160272683A1 (Novo Nordisk, published 2016):
Numbered stars: 1 amine (or outer) side, 2 acyl side, 3 side chain; on linkers, the order of the positions; unused ones are H or OH. Ends that are not written are not given here. * marks the point of attachment. C20 diacid = O=C(O)CCCCCCCCCCCCCCCCCCC(=O)*; C18 diacid = O=C(O)CCCCCCCCCCCCCCCCC(=O)*; γGlu = O=C(O)[C@H](CCC(=O)[*:2])N[*:1]

T1: human calcitonin receptor (human, UniProt P30988 25-474)
T1 construct: whole, on cells; also called hCT-R; hCTR
T1 sequence (looked up): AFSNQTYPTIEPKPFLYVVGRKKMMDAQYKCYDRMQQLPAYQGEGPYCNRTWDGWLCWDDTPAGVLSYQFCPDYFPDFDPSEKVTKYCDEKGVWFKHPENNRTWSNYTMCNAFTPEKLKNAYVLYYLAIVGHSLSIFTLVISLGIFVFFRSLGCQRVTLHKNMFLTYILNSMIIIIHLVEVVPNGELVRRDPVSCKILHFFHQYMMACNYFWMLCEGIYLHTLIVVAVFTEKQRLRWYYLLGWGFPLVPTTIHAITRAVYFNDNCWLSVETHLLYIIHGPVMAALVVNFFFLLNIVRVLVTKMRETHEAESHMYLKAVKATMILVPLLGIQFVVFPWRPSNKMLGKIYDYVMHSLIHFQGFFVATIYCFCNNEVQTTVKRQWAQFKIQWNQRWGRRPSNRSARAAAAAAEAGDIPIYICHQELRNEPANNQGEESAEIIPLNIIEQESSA

T2: human amylin receptor (human calcitonin receptor + human RAMP3) (human) (UniProt P30988)
T2 sequence (looked up) 1: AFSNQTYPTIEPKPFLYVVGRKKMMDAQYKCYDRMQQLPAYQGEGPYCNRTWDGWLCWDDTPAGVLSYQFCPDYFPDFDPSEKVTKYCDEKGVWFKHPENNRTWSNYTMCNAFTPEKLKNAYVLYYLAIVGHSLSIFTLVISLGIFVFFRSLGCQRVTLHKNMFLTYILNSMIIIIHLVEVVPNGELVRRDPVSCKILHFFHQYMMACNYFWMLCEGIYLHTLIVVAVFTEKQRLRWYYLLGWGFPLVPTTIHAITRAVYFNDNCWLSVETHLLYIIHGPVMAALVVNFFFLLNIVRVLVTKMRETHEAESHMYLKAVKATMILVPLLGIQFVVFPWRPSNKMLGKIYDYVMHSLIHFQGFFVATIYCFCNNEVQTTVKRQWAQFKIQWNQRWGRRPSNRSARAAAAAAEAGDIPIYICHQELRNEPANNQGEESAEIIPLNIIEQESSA
T2 sequence (looked up) 2: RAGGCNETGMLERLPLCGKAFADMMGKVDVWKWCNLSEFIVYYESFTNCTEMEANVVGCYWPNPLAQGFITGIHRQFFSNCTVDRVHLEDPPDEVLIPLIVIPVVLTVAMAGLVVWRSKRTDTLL


What was measured:
[1] = molecular target: T1, human calcitonin receptor; assay: whole-cell competition vs 125I-human calcitonin (Assay VIIa)
Protocol: The binding assay was performed using a BHK tk'ts 13 cell line was stably transfected with the human calcitonin receptor, and a CRE-responsive luciferase reporter gene.
The day before the assay the cells were Seeded into Poly-D-Lysin coated 384W Opaque White, BD BioCoat plates (10000 cells/well) and Incubated overnight at 37° C., 5% CO2, 95% humidity. […] The morning after, the plates were washed three times in HBSS (4° C.), and lyzed in Lysis buffer (0.1 M NaOH), 1% SDS. Scintillation cocktail (MicroScint40®) was added and the plates were shaken at 500 rpm for a short period. The plate was incubated at room temperature in the dark for 1 hour and Read on a TopCounter™ (Packard). The IC₅₀ was calculated using (one site binding competition analysis) GraphPad Prism5 as a measure of receptor affinity.

[2] = molecular target: T2, human amylin receptor (human calcitonin receptor + human RAMP3) (human); assay: whole-cell competition vs 125I-rat amylin (Assay Va)

Binder | IC50 [1] [nM] | IC50 [2] [nM]
EASELSTAALGRLSAELHELATLPRTETGPESP-NH2 (also called Ex. #1) [mimylin] | 0.431 | –
{C18 diacid}-EAPELSTAVLGRLSAELHELATLPRTETGPESP-NH2 (SMILES CC(C)C[C@H](NC(=O)[C@H](CCC(=O)O)NC(=O)[C@H](Cc1c[nH]cn1)NC(=O)[C@H](CC(C)C)NC(=O)[C@H](CCC(=O)O)NC(=O)[C@H](C)NC(=O)[C@H](CO)NC(=O)[C@H](CC(C)C)NC(=O)[C@H](CCCNC(=N)N)NC(=O)CNC(=O)[C@H](CC(C)C)NC(=O)[C@@H](NC(=O)[C@H](C)NC(=O)[C@@H](NC(=O)[C@H](CO)NC(=O)[C@H](CC(C)C)NC(=O)[C@H](CCC(=O)O)NC(=O)[C@@H]1CCCN1C(=O)[C@H](C)NC(=O)[C@H](CCC(=O)O)NC(=O)CCCCCCCCCCCCCCCCC(=O)O)[C@@H](C)O)C(C)C)C(=O)N[C@@H](C)C(=O)N[C@H](C(=O)N[C@@H](CC(C)C)C(=O)N1CCC[C@H]1C(=O)N[C@@H](CCCNC(=N)N)C(=O)N[C@H](C(=O)N[C@@H](CCC(=O)O)C(=O)N[C@H](C(=O)NCC(=O)N1CCC[C@H]1C(=O)N[C@@H](CCC(=O)O)C(=O)N[C@@H](CO)C(=O)N1CCC[C@H]1C(N)=O)[C@@H](C)O)[C@@H](C)O)[C@@H](C)O, also called Ex. #29) [[N-terminal(C18 diacid), 3P, 9V]mimylin] | 0.309 | –
{C18 diacid}-EPSELSTAVLGRLSAELHELATLPRTETGPESP-NH2 (SMILES CC(C)C[C@H](NC(=O)[C@H](CCC(=O)O)NC(=O)[C@H](Cc1c[nH]cn1)NC(=O)[C@H](CC(C)C)NC(=O)[C@H](CCC(=O)O)NC(=O)[C@H](C)NC(=O)[C@H](CO)NC(=O)[C@H](CC(C)C)NC(=O)[C@H](CCCNC(=N)N)NC(=O)CNC(=O)[C@H](CC(C)C)NC(=O)[C@@H](NC(=O)[C@H](C)NC(=O)[C@@H](NC(=O)[C@H](CO)NC(=O)[C@H](CC(C)C)NC(=O)[C@H](CCC(=O)O)NC(=O)[C@H](CO)NC(=O)[C@@H]1CCCN1C(=O)[C@H](CCC(=O)O)NC(=O)CCCCCCCCCCCCCCCCC(=O)O)[C@@H](C)O)C(C)C)C(=O)N[C@@H](C)C(=O)N[C@H](C(=O)N[C@@H](CC(C)C)C(=O)N1CCC[C@H]1C(=O)N[C@@H](CCCNC(=N)N)C(=O)N[C@H](C(=O)N[C@@H](CCC(=O)O)C(=O)N[C@H](C(=O)NCC(=O)N1CCC[C@H]1C(=O)N[C@@H](CCC(=O)O)C(=O)N[C@@H](CO)C(=O)N1CCC[C@H]1C(N)=O)[C@@H](C)O)[C@@H](C)O)[C@@H](C)O, also called Ex. #28) [[N-terminal(C18 diacid), 2P, 9V]mimylin] | 0.351 | –
EASELSTAALGRLSAELHELATLPRTETGSGSP-NH2 (backbone without side chain; also called Ex. #22bb; 22bb) | 0.481 | –
{C18 diacid}-EASPLSTAVLGRLSAELHELATLPRTETGPESP-NH2 (SMILES CC(C)C[C@H](NC(=O)[C@H](CCC(=O)O)NC(=O)[C@H](Cc1c[nH]cn1)NC(=O)[C@H](CC(C)C)NC(=O)[C@H](CCC(=O)O)NC(=O)[C@H](C)NC(=O)[C@H](CO)NC(=O)[C@H](CC(C)C)NC(=O)[C@H](CCCNC(=N)N)NC(=O)CNC(=O)[C@H](CC(C)C)NC(=O)[C@@H](NC(=O)[C@H](C)NC(=O)[C@@H](NC(=O)[C@H](CO)NC(=O)[C@H](CC(C)C)NC(=O)[C@@H]1CCCN1C(=O)[C@H](CO)NC(=O)[C@H](C)NC(=O)[C@H](CCC(=O)O)NC(=O)CCCCCCCCCCCCCCCCC(=O)O)[C@@H](C)O)C(C)C)C(=O)N[C@@H](C)C(=O)N[C@H](C(=O)N[C@@H](CC(C)C)C(=O)N1CCC[C@H]1C(=O)N[C@@H](CCCNC(=N)N)C(=O)N[C@H](C(=O)N[C@@H](CCC(=O)O)C(=O)N[C@H](C(=O)NCC(=O)N1CCC[C@H]1C(=O)N[C@@H](CCC(=O)O)C(=O)N[C@@H](CO)C(=O)N1CCC[C@H]1C(N)=O)[C@@H](C)O)[C@@H](C)O)[C@@H](C)O, also called Ex. #30) [[N-terminal(C18 diacid), 4P, 9V]mimylin] | 0.478 | –
{C18 diacid}-EASELSTAALGRLSAELHELATLPRTETGPESP-OH [[N-terminal(C18 diacid), C-terminal(-)]mimylin] | – | 298
EASELSTAALGRLSAELHELATLPRTETGPESP-OH [[C-terminal(-)]mimylin] | – | 294
EASELSTAALGRLSAELHELATLPRTETGSGSP-NH2 | – | 0.469

Other lines, results leading:

IC50 [1] [nM] | IC50 [2] [nM] | Binder
– | 2.56 | {C20 diacid-γGlu}-ELSGLSTLVLGRLSQELHELQTYPRTGTGSGTY-NH2 (SMILES CC(C)C[C@H](NC(=O)CNC(=O)[C@H](CO)NC(=O)[C@H](CC(C)C)NC(=O)[C@H](CCC(=O)O)NC(=O)CC[C@H](NC(=O)CCCCCCCCCCCCCCCCCCC(=O)O)C(=O)O)C(=O)N[C@@H](CO)C(=O)N[C@H](C(=O)N[C@@H](CC(C)C)C(=O)N[C@H](C(=O)N[C@@H](CC(C)C)C(=O)NCC(=O)N[C@@H](CCCNC(=N)N)C(=O)N[C@@H](CC(C)C)C(=O)N[C@@H](CO)C(=O)N[C@@H](CCC(N)=O)C(=O)N[C@@H](CCC(=O)O)C(=O)N[C@@H](CC(C)C)C(=O)N[C@@H](Cc1c[nH]cn1)C(=O)N[C@@H](CCC(=O)O)C(=O)N[C@@H](CC(C)C)C(=O)N[C@@H](CCC(N)=O)C(=O)N[C@H](C(=O)N[C@@H](Cc1ccc(O)cc1)C(=O)N1CCC[C@H]1C(=O)N[C@@H](CCCNC(=N)N)C(=O)N[C@H](C(=O)NCC(=O)N[C@H](C(=O)NCC(=O)N[C@@H](CO)C(=O)NCC(=O)N[C@H](C(=O)N[C@@H](Cc1ccc(O)cc1)C(N)=O)[C@@H](C)O)[C@@H](C)O)[C@@H](C)O)[C@@H](C)O)C(C)C)[C@@H](C)O) [[N-terminal(C20 diacid-gGlu), 2L, 4G, 8L, 9V, 15Q, 21Q, 23Y, 27G, 30S, 31G, 32T, 33Y]mimylin]
– | 71.4 | ASELTTAVLGRLEAELHELTTLPRTETGTGTP-NH2 [[des1, 6T, 9V, 14E, 21T, 30T, 31G, 32T]mimylin]
– | 0.982 | ASEVSTAVLGRLSAELHELATLPRTETGSGSP-NH2 [[des1, 5V, 9V, 30S, 31G]mimylin]
– | 5.1 | ASELSTAALGHLSAELHELATLPRTETGSGSP-NH2 [[des1, 12H, 30S, 31G]mimylin]
– | 20.2 | ASELTTAVLGRLSAELHELATLPRTETGTGTP-NH2 [[des1, 6T, 9V, 30T, 31G, 32T]mimylin]
– | 1.18 | LSGLSTAVLGRLSQELHELQTYPRTETGSQTY-NH2 [[des1, 2L, 4G, 9V, 15Q, 21Q, 23Y, 30S, 31Q, 32T, 33Y]mimylin]
– | 10.7 | {C20 diacid-γGlu}-LSQLSTLVLGRLSQRLHRLQTYPRTQTGSQTY-NH2 (SMILES CC(C)C[C@H](NC(=O)CC[C@H](NC(=O)CCCCCCCCCCCCCCCCCCC(=O)O)C(=O)O)C(=O)N[C@@H](CO)C(=O)N[C@@H](CCC(N)=O)C(=O)N[C@@H](CC(C)C)C(=O)N[C@@H](CO)C(=O)N[C@H](C(=O)N[C@@H](CC(C)C)C(=O)N[C@H](C(=O)N[C@@H](CC(C)C)C(=O)NCC(=O)N[C@@H](CCCNC(=N)N)C(=O)N[C@@H](CC(C)C)C(=O)N[C@@H](CO)C(=O)N[C@@H](CCC(N)=O)C(=O)N[C@@H](CCCNC(=N)N)C(=O)N[C@@H](CC(C)C)C(=O)N[C@@H](Cc1c[nH]cn1)C(=O)N[C@@H](CCCNC(=N)N)C(=O)N[C@@H](CC(C)C)C(=O)N[C@@H](CCC(N)=O)C(=O)N[C@H](C(=O)N[C@@H](Cc1ccc(O)cc1)C(=O)N1CCC[C@H]1C(=O)N[C@@H](CCCNC(=N)N)C(=O)N[C@H](C(=O)N[C@@H](CCC(N)=O)C(=O)N[C@H](C(=O)NCC(=O)N[C@@H](CO)C(=O)N[C@@H](CCC(N)=O)C(=O)N[C@H](C(=O)N[C@@H](Cc1ccc(O)cc1)C(N)=O)[C@@H](C)O)[C@@H](C)O)[C@@H](C)O)[C@@H](C)O)C(C)C)[C@@H](C)O)
